# Measurements as given in patent publication US20060228299A1 (University of Texas, published 2006).
# T1: murine β2GPI (in normal mouse serum) (mouse, UniProt Q01339 20-345)
# T1 construct: mature; also called mouse β2GPI
# T1 sequence (looked up): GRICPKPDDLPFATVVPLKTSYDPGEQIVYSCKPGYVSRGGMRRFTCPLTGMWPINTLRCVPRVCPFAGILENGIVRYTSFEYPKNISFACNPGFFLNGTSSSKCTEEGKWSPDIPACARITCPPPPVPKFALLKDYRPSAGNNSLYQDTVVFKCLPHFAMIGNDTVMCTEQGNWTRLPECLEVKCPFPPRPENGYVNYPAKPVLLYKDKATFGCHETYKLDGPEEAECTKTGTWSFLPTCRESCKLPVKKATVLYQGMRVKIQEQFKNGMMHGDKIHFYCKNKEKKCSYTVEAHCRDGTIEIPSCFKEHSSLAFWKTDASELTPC
# Molecular target: T1, murine β2GPI (in normal mouse serum)
# Test: immunoblot of 10% normal mouse serum
binder,measurement,value
"3G4 mouse monoclonal antibody as used in Example XXX (converted to mouse IgG2a isotype, produced in NS0 cells) (antibody, V domains shown, It was purified from serum-free media (SFM) or serum-containing media (SCM); also called 3G4 SFM; 3G4 SCM) VH: EVQLQQSGPELEKPGASVKLSCKASGYSFTGYNMNWVKQSHGKSLEWIGHIDPYYGDTSYNQKFRGKATLTVDKSSSTAYMQLKSLTSEDSAVYYCVKGGYYGHWYFDVWGAGTTVTVSS VL: DIQMTQSPSSLSASLGERVSLTCRASQDIGSSLNWLQQGPDGTIKRLIYATSSLDSGVPKRFSGSRSGSDYSLTISSLESEDFVDYYCLQYVSSPPTFGAGTKLELKR",binding result,no binding (tested: 1 µg/ml)
